Assay results as given in patent publication US9023604 (IBA, dated 2015).

Columns and labels:
[1] = biological target: T1, CD4 cell surface receptor molecule on peripheral blood mononuclear cells (PBMCs) (human, UniProt P01730 26-458); assay: flow cytometry, PBMCs, live CD3+ T cells; column 'Fab multimer': Fab multimerized on Strep-Tactin PE
T1 construct: whole, on cells; also called CD4 receptor molecule
Description: (§1) Remaining Fab-monomers (i.e. Fab fragments used as receptor binding reagent) on the target cell surface were then detected after subsequent washing steps to remove […] using Strep-Tactin PE alone (without bound Fab fragments) (fourth column). Fab-multimer staining after the reversible staining described above of the cells was performed again (fifth column) to control completion of biotin removal which otherwise would have hampered the staining of remaining Fab-monomers with Strep-Tactin PE alone (without bound Fab fragments) as shown in the fourth column and which thus would have led to a wrong conclusion of the experiment. Alternatively, cells were incubated with monomeric Fab-fragments, washed and subsequently analyzed after staining with Strep-Tactin® PE (first, i.e. left-most column). Live CD3^+ T cells are shown. Numbers in the dot plots indicate the percentage of cells within gates.
(§2) For staining of a CD4 receptor molecule specific target cell population in a mixture of cells, Strep-Tactin® labeled with phycoerythrine as a fluorescent label (IBA GmbH, Göttingen, Germany) was used as multimerization reagent together with the monomeric CD4 binding Fab-One-STrEP fragment of the variants of the antibody 13B8.2 (that served as receptor binding reagent) as described below. For FACS analysis 5×10^6 PBMCs were incubated with Fab multimers consisting of 0.2 μg Fab-fragment (comprising binding site B) equipped with the One-STrEP-tag (binding partner C) as receptor binding reagent and 0.75 μg Strep-Tactin® PE (IBA GmbH, Göttingen, Germany) as multimerization reagent using the protocol below. In addition, after FACS separation, the multivalent complexes were disrupted in a portion of each of the stained cells by addition of biotin as described below. Control antibody stainings were performed by concomitant application of the respective antibody: anti-CD4 (OKT4) (from eBiosciences, San Diego, Calif., USA). After the staining procedure of the present invention, cells were subsequently stained with propidium iodide for live/dead discrimination.
Protocol for Staining of 5×10^6 Cells with Receptor Binding Reagent and Multimerization Reagent 1. 0.75 μg Strep-Tactin PE were incubated with 0.2 μg monomeric CD4 binding Fab-One-STrEP fragment for 30 minutes at 4° C. in the dark. 2.

[2] = biological target: T1, CD4 cell surface receptor molecule on …; assay: flow cytometry, PBMCs, live CD3+ T cells; column 'Fab multimer -> D-biotin': Fab-multimer staining analysed after treatment with D-biotin
Description: as §1, §2
(§3) For staining and dissociation experiments, 5 ×10^6 PBMCs were incubated with the respective anti-CD4 Fab-multimer-Strep-Tactin® PE complexes or with the corresponding Fab-monomers (the latter not complexed with Strep-Tactin® PE).

[3] = biological target: T1, CD4 cell surface receptor molecule on …; assay: flow cytometry, PBMCs, live CD3+ T cells; column 'Fab multimer -> D-biotin -> Fab multimer': second Fab-multimer staining after D-biotin and washing
Excerpt: as §1, with “Peripheral Blood Mononuclear Cells (PBMCs) were stained with anti-CD4 Fab fragments (receptor binding reagent) fused to a sequential arrangement of two Strep-tag® sequences (commercially available under the trade name "One-STrEP-tag"; binding partner C) and multimerized on phycoerythrin labeled Strep-Tactin® (Strep-Tactin PE; IBA GmbH, Göttingen, Germany; multimerization reagent comprising at least 2 binding sites Z for the binding partner C) and analyzed either before (second column) or after treatment with D-biotin (third column). Remaining” for “Remaining”
as §3

[4] = biological target: T1, CD4 cell surface receptor molecule on …; assay: flow cytometry, PBMCs, live CD3+ T cells; column 'Fab multimer -> D-biotin -> ST-PE': after D-biotin and washing, remaining Fab monomers detected with Strep-Tactin PE alone
Excerpt: as §1, with “Peripheral Blood Mononuclear Cells (PBMCs) were stained with anti-CD4 Fab fragments (receptor binding reagent) fused to a sequential arrangement of two Strep-tag® sequences (commercially available under the trade name "One-STrEP-tag"; binding partner C) and multimerized on phycoerythrin labeled Strep-Tactin® (Strep-Tactin PE; IBA GmbH, Göttingen, Germany; multimerization reagent comprising at least 2 binding sites Z for the binding partner C) and analyzed either before (second column) or after treatment with D-biotin (third column). Remaining” for “Remaining”
(§4) For staining and dissociation experiments, 5 ×10^6 PBMCs were incubated with the respective anti-CD4 Fab-multimer-Strep-Tactin® PE complexes or with the corresponding Fab-monomers (the latter not complexed with Strep-Tactin® PE). […] After D-biotin-mediated disruption of the multimeric complexes (FIG. 2, third column) and subsequent washing, the cells were probed for residual surface-bound Fab fragments by the addition of Strep-Tactin® PE alone (without bound Fab) (FIG. 2, fourth column).

[5] = biological target: T1, CD4 cell surface receptor molecule on …; assay: flow cytometry, PBMCs, live CD3+ T cells; column 'Fab monomer -> ST-PE': cells incubated with monomeric Fab, washed, then stained with Strep-Tactin PE; y axis CD4 Fab-multimer / Fab-monomer, x axis CD8
Excerpt: as §1, with “Peripheral Blood Mononuclear Cells (PBMCs) were stained with anti-CD4 Fab fragments (receptor binding reagent) fused to a sequential arrangement of two Strep-tag® sequences (commercially available under the trade name "One-STrEP-tag"; binding partner C) and multimerized on phycoerythrin labeled Strep-Tactin® (Strep-Tactin PE; IBA GmbH, Göttingen, Germany; multimerization reagent comprising at least 2 binding sites Z for the binding partner C) and analyzed either before (second column) or after treatment with D-biotin (third column). Remaining” for “Remaining”
as §4

Row | Binder | percentage of cells within gate [1] [%] | percentage of cells within gate [2] [%] | percentage of cells within gate [3] [%] | percentage of cells within gate [4] [%] | percentage of cells within gate [5] [%]
1 | 13B8.2 Fab fragment (variable domains of murine anti-CD4 antibody 13B8.2, human CH1 gamma1 and human kappa constant domains), heavy chain fused to One-STrEP-tag (Fab, V domains shown, Expressed in the E. coli periplasm; Stained as a monomer or multimerized on Strep-Tactin PE; also called CD4 wt (13B8.2); 13B8.2 wildtype (wt) Fab fragment) VH: QVQLKQSGPGLVQPSQSLSITCTVSGFSLTTFGVHWVRQSPGKGLEWLGVIWRSGITDYNVPFMSRLSITKDNSKSQVFFKLNSLQPDDTAIYYCAKNDPGTGFAYWGQGTLVTVSA VL: DIQMTQSPASLSASVGETVTFTCRASEMIYSYLAWYQQKQGKSPQLLVHDAKTLAEGVPSRFSGGGSGTQFSLKINTLQPEDFGTYYCQHHYGNPPTFGGGTKLEIKR | 23.3 | 0.041 | 18.8 | 16.1 | 20
2 | Mutant 13B8.2 Fab fragment with His at position 91 of the light chain mutated to Ala, heavy chain fused to One-STrEP-tag (Fab, V domains shown, also called CD4 mutant 4 (H91A); mutant 4) VH: QVQLKQSGPGLVQPSQSLSITCTVSGFSLTTFGVHWVRQSPGKGLEWLGVIWRSGITDYNVPFMSRLSITKDNSKSQVFFKLNSLQPDDTAIYYCAKNDPGTGFAYWGQGTLVTVSA VL: DIQMTQSPASLSASVGETVTFTCRASEMIYSYLAWYQQKQGKSPQLLVHDAKTLAEGVPSRFSGGGSGTQFSLKINTLQPEDFGTYYCQHAYGNPPTFGGGTKLEIKR | 23.1 | 0.017 | 20 | 0.00284 | 0.0039
3 | Mutant 13B8.2 Fab fragment with Phe at position 100 of the heavy chain mutated to Ala, heavy chain fused to One-STrEP-tag (Fab, V domains shown, also called CD4 mutant 1 (F100A); F100K-H) VH: QVQLKQSGPGLVQPSQSLSITCTVSGFSLTTFGVHWVRQSPGKGLEWLGVIWRSGITDYNVPFMSRLSITKDNSKSQVFFKLNSLQPDDTAIYYCAKNDPGTGAAYWGQGTLVTVSA VL: DIQMTQSPASLSASVGETVTFTCRASEMIYSYLAWYQQKQGKSPQLLVHDAKTLAEGVPSRFSGGGSGTQFSLKINTLQPEDFGTYYCQHHYGNPPTFGGGTKLEIKR | 23 | 0.014 | 19.2 | 16.4 | 19.9
4 | Mutant 13B8.2 Fab fragment with Tyr at position 92 of the light chain mutated to Ala, heavy chain fused to One-STrEP-tag (Fab, V domains shown, also called CD4 mutant 2 (Y92A); mutant 2) VH: QVQLKQSGPGLVQPSQSLSITCTVSGFSLTTFGVHWVRQSPGKGLEWLGVIWRSGITDYNVPFMSRLSITKDNSKSQVFFKLNSLQPDDTAIYYCAKNDPGTGFAYWGQGTLVTVSA VL: DIQMTQSPASLSASVGETVTFTCRASEMIYSYLAWYQQKQGKSPQLLVHDAKTLAEGVPSRFSGGGSGTQFSLKINTLQPEDFGTYYCQHHAGNPPTFGGGTKLEIKR | 14.7 | 0.034 | 18.8 | 0.0017 | 0.0022
5 | Mutant 13B8.2 Fab fragment with His at position 35 of the heavy chain mutated to Ala, heavy chain fused to One-STrEP-tag (Fab, V domains shown, also called CD4 mutant 3 (H35A); mutant 3) VH: QVQLKQSGPGLVQPSQSLSITCTVSGFSLTTFGVAWVRQSPGKGLEWLGVIWRSGITDYNVPFMSRLSITKDNSKSQVFFKLNSLQPDDTAIYYCAKNDPGTGFAYWGQGTLVTVSA VL: DIQMTQSPASLSASVGETVTFTCRASEMIYSYLAWYQQKQGKSPQLLVHDAKTLAEGVPSRFSGGGSGTQFSLKINTLQPEDFGTYYCQHHYGNPPTFGGGTKLEIKR | 23.4 | 0.041 | 19.3 | 0.019 | 0.007
